Data as given in paper PMC3936849 (2014).

Key:
Assay in all cases: SPR
[1] = molecular target: T1, ALK1 extracellular domain, C-terminal Fc-tagged chimera (UniProt P37023 22-118)
[2] = molecular target: T2, ActRIIb extracellular domain, C-terminal Fc-tagged chimera (UniProt Q13705 19-137)
T2 chain: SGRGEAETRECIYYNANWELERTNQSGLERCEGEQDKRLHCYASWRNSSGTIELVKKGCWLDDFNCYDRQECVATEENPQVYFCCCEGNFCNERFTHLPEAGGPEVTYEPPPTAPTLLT

[3] = molecular target: T3, ActRIIa extracellular domain, C-terminal Fc-tagged chimera (UniProt P27037 20-135)
[4] = molecular target: T4, BMPRII extracellular domain, C-terminal Fc-tagged chimera (UniProt Q13873 27-150)
T4 chain: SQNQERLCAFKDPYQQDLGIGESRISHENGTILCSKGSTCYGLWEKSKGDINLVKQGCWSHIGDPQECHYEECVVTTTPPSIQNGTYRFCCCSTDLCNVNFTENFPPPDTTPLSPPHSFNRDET

[5] = molecular target: T1, ALK1 extracellular domain, C-terminal …; remark: listed apart in the source
[6] = molecular target: T2, ActRIIb extracellular domain, …
[7] = molecular target: T3, ActRIIa extracellular domain, …; remark: listed apart in the source
[8] = molecular target: T4, BMPRII extracellular domain, C-terminal …

T1 sequence (P37023 22-118, change not shown): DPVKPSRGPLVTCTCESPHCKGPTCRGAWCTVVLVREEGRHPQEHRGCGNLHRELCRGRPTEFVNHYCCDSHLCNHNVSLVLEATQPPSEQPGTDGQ
T3 sequence (P27037 20-135, change not shown): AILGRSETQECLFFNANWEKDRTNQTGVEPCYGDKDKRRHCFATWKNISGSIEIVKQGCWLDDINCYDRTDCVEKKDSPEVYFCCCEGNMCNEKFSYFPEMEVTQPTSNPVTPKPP

B1: MB109 (E. coli-derived mature domain of human bone morphogenetic protein-9, refolded functional dimer) (ligand)
chain: MSAGAGSHCQKTSLRVNFEDIGWDSWIIAPKEYEAYECKGGCFFPLADDVTPTKHAIVQTLVHLKFPTKVGKACCVPTKLSPISVLYKDDMGVPTLKYHYEGMSVAECGCR
B1 gave a koff [1] of 0.000884 s⁻¹, a koff [2] of 0.00152 s⁻¹ and a koff [3] of 0.0121 s⁻¹. The koff [4] was 0.00153 s⁻¹, the Kd [5] was 0.209 nM and the Kd [6] was 0.154 nM. The Kd [7] was 4.27 nM and the Kd [8] was 0.33 nM.
